# Columns and labels:
# [1] = Localization of Etanercept to inflamed tissues in hind limb arthritic rat model; assay type: in vivo; details: administered to the skin compared to subcutaneous delivery, FIG. 11A and B
# [2] = In vivo near infrared imaging of lymphatic delivery of fluorescently tagged Etanercept after needle array administration to the skin; design: species or system rat; details: needle array device placed dorsally on rats, FIG. 8 and 9
# Description: The ability to deliver the protein therapeutic Etanercept directly to the lymphatic system via administration to the skin was tested. Etanercept was fluorescently tagged for in vivo visualization using near infrared light as previous described, see Sevick-Muraca et al., J. Clin Invest., 124 (3), 905-914 (2014), which is incorporated by reference herein for its teachings thereof. Etanercept was administered to the skin of rats by placing a delivery device comprising an array of needles dorsally on the rats.
# [3] = Biodistribution of Etanercept across multiple tissue types following delivery to the skin; assay type: in vivo, rat; details: delivery to the skin compared to traditional i.v., s.c., or i.d. methods, FIG. 10
# Excerpt: The biodistribution of Etanercept across multiple tissues types following delivery was investigated.
# [4] = test system: hind limb arthritic rat model; experiment: Reduction of swelling of inflamed tissues measured by ankle diameter; assay type: in vivo; details: same 3 mg dosage, administration to the skin compared to subcutaneous injection, FIG. 12
# Description: Furthermore, there was a 17% reduction in the swelling of these inflamed tissues after administration of the same 3 mg dosage of Etanercept as measured by ankle diameter (FIG. 12).
# [5] = Rate of blood serum absorption of Etanercept after delivery to the skin; assay type: in vivo; details: administration to the skin compared with i.v., s.c., or i.d. methods, FIG. 13
substance,measurement,setting,value
Etanercept,levels localized to inflamed tissues,[1],higher levels
same,lymphatic uptake and distribution after administration to the skin,[2],uptake by the lymphatic vasculature and subsequent distribution to primary and secondary lymph node tissues
same,levels within the axillary and inguinal lymph nodes,[3],much higher levels
same,reduction in the swelling of inflamed tissues (ankle diameter),[4],17%
same,blood serum absorption rate,[5],approximately the same
